Reference: patent US20230391852A1 (US Dept. of Health and Human Services, published 2023)
Numbering of substitutions follows the chain as printed. Where “and” joins values, the source holds several entries; their conditions need not be identical. Identical values can stand only once.

B1: 8A4 VHH-hFc (Fc fusion)
chain: EVQLVESGGGLVQPGESLRLSCEASGFTFSSVYMSWVRQAPGKGLEWISTIHPAGGSTYYADSMKDRFTISRDNAKNTLYLQMNSLKSEDTALYYCIIEALSGYRGPGTQVTVSS
notes: also called 8A4-hFc; NCI-CoV-8A4 VHH-hFc fusion protein
B2: 1B5 VHH-hFc (Fc fusion)
chain: DVQLVESGGGSVQAGGSLRLSCTGSRYTYSTYCMGWFRQAPGKEEEAVAIINSGGGEPYYGDSVKGRFTISQDRAKNTVYLQMDGLQPDDTAIYYCVAADSHNSRCYLGRSYVNYWGQGTQVTVSS
notes: also called 1B5-hFc; NCI-CoV-1B5 VHH-hFc fusion protein
B3: 2F7 VHH-hFc (Fc fusion)
chain: QVKLEESGGGSVQSGGSLRLSCTVSRDTNTNINRCMGWFRQAPGKGLETVATINRDGTNTYYTDAVKGRFTISQDNVKNTVYLQMNNLTPEDTGTYICNAMGRGSGSRCDNWDPNYWGQGTQVTVSS
notes: also called 2F7-hFc; NCI-CoV-2F7 VHH-hFc fusion protein
B4: 7A3 VHH-hFc (Fc fusion)
chain: QVQLVESGGGSVQPGGSLRLSCVVSGYTSSSRYMGWFRQVPGKGLEWVSGIKRDGTNTYYADSVKGRFTISQDNAKNTVYLQMNSLKPEDTAMYYCAAGSWYNQWGYSMDYWGKGTQVTVSS
notes: also called 7A3-hFc; NCI-CoV-7A3 VHH-hFc fusion protein
B5: 8A2 VHH-hFc (Fc fusion)
chain: AVQLVDSGGGSVQAGGSLRLSCAASGYTYSICTMGWYRQAPGEGLEWVSGINADGSNTHYTDSVKGRFTISRDNAKKTLYLQMNSLKPEDTAIYYCAAHGTYDKYAPCGGFAGTYTYWGQGTQVTVSS
notes: also called NCI-CoV-8A2 VHH-hFc
B6: 1H6 VHH-hFc (Fc fusion)
chain: AVQLVDSGGGSVQAGGSLNLSCVASGTTLRNGCMAWFRQVPGKEREVVAIIIRATSYTDYADSVKGRFTISQDNAKNTVYLQMKSLTPEDTATYYCAATLYRVNCAKREFDKWGQGTQVTVSS
notes: also called 1H6-hFc; NCI-CoV-1H6 VHH-hFc fusion protein
B7: NCI-CoV-7E7 (VHH)
VHH: AVQLVDSGGGSVQSGGSLRLSCVASGYTYSIYNMGWFRQAPGKGLEWVSGINSDGSNTYYADSVKGRFTISRDNAKNTLYLQMNSLKSEDTALYYCATLPICSGGYCPPGYWGQGTQVTVSS
B8: 7C4 VHH-hFc (Fc fusion)
chain: EVQLVESGGGLVQPGGSLRLSCTASGFTFSSYDMSWVRQAPGKGLEWVSGINSGGNKIYYADSVKGRFTISRDNAKNTLYLQMSSLKSEDTALYYCAIGRLYSVKGQGTQVTVSS
notes: also called NCI-CoV-7C4 VHH-hFc fusion protein
B9: 7A5 VHH-hFc (Fc fusion)
chain: B8 chain with E1A, T23A, D33Y, G50T, G54R, N56S, K57S, I58T
notes: also called NCI-CoV-7A5 VHH-hFc fusion protein
B10: 2C7 VHH-hFc (Fc fusion)
chain: EVQLVESGGGSVQTGGSLRLSCVVSGYDYSNYCVAWFRQAEGKNREGLAGINTHGAYTNYNTPAKGRFTISQDLTKNTFTLQMNSLTPEDTAIYYCAAYPEYCPRFSSSSWNNSAVWGQGTQVTVSS
notes: also called NCI-CoV-2C7 VHH-hFc fusion protein
B11: 3E8 VHH-hFc (Fc fusion)
chain: QVQLVESGGGLVQAGGSLRLSCATSGFTFSGGYMAWVRQVPGKGLEWVANSIYDGSTYYSDAVKGRFTVSQDNAENTVYLEMNSLEPEDTAMYYCAAGWNGGPWSRTNAYIYWGQGTQVTVSS
notes: also called NCI-CoV-3E8 VHH-hFc fusion protein

Legend:
BSA = biological target: T1, BSA (UniProt P02769 25-607); assay: ELISA, 1 µg/ml coated BSA, 1 µg/ml VHH-hFc
T1 construct: also called control protein

SARS-CoV S1 = biological target: T2, SARS-CoV S1 (SARS-CoV, UniProt P59594 14-667); assay: ELISA, 1 µg/ml coated antigen, 1 µg/ml VHH-hFc
T2 construct: domain: S1; also called SARS-CoV S1 protein

RBD-mFc [1] = biological target: T3, RBD-mFc (SARS-CoV-2, UniProt P0DTC2 319-541)
[2] = biological target: SARS-CoV-2 spike on pseudovirus (SARS-CoV-2, UniProt P0DTC2 14-1273); assay: cell-based or functional assay
[3] = biological target: T4, SARS-CoV S protein trimer expressed on human A431 cells (SARS-CoV, UniProt P59594 14-1255); assay: flow cytometry on A431 cells expressing SARS-CoV S (A431-CoV-S)
T4 construct: whole, on cells; also called S protein of SARS-CoV

RBD-mFc [4] = biological target: T3, RBD-mFc; remark: listed apart in the source
[5] = biological target: T4, SARS-CoV S protein trimer expressed on …; assay: flow cytometry on A431 cells expressing SARS-CoV S protein trimer (FIG. 3B)
SARS-CoV-2 RBD = SARS-CoV-2 RBD (SARS-CoV-2, UniProt P0DTC2 319-541); assay: monoclonal phage ELISA, drawn table of OD450 values
SARS-CoV-2 S trimer = biological target: T5, SARS-CoV-2 S trimer (SARS-CoV-2, UniProt P0DTC2 16-1213); assay: as above
T5 construct: also called SARS-CoV-2 S protein; S homotrimer protein

T1 sequence (P02769 25-607 limits assumed): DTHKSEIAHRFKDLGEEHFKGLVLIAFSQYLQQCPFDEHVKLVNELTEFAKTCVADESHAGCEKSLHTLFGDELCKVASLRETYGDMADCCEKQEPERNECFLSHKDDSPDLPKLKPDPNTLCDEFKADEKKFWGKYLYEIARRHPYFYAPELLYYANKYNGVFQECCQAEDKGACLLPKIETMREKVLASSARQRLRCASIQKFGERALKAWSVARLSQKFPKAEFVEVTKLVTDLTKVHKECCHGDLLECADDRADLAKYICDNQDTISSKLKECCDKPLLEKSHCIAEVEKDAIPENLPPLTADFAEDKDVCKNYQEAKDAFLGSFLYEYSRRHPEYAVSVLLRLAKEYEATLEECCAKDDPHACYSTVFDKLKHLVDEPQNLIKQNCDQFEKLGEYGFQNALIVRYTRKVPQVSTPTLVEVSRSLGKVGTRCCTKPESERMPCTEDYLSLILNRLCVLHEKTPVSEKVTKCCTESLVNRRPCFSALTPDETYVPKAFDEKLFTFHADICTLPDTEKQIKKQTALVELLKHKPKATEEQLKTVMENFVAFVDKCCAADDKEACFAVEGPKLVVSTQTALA

Binder	binding result (BSA)	binding result (SARS-CoV S1)	IC50, SARS-CoV-2 spike pseudovirus neutralization, repeated assay (FIGS. 9A-9F) [2]	Kd (SARS-CoV-2)	further results
B1	no binding (tested: 1 µg/ml)	binds	–	–	–
B2	no binding (tested: 1 µg/ml)	–	7.6 nM	0.1 nM	IC50 (RBD-mFc [1]): < 0.001 µg/mL; IC50, SARS-CoV-2 spike pseudovirus neutralization on HEK 293T-hACE2 cells [2]: 6.6 nM and 0.55 µg/ml; percent of cells right of the dashed gate line [3]: 98.3%; IC50 (read off the curve) (RBD-mFc [4]): ~0.3 µg/mL
B3	no binding (tested: 1 µg/ml)	no binding (tested: 1 µg/ml)	–	–	–
B4	–	–	–	0.2 nM	percent of cells right of the dashed gate line [3]: 92.1%
B5	–	–	–	0.26 nM	binding result [5]: no binding; percent of cells right of the dashed gate line [3]: 59.2%
B6	–	no binding (tested: 1 µg/ml)	–	37 nM	–
B7	–	–	–	–	OD450 (SARS-CoV-2 RBD): 1; OD450 (SARS-CoV-2 S trimer): 0.57
B8	no binding (tested: 1 µg/ml)	binds	4290 nM	–	–
B9	binds	binds	3430 nM	–	–
B10	no binding (tested: 1 µg/ml)	–	5790 nM	–	–
B11	no binding (tested: 1 µg/ml)	binds	1170 nM	–	–
